T1: human CDH16 protein (hCDH16-his, Novoprotein, Cat. No. CJ16) (human, UniProt O75309 19-786)
T1 construct: Bought; also called human CDH16-his
T1 sequence (looked up): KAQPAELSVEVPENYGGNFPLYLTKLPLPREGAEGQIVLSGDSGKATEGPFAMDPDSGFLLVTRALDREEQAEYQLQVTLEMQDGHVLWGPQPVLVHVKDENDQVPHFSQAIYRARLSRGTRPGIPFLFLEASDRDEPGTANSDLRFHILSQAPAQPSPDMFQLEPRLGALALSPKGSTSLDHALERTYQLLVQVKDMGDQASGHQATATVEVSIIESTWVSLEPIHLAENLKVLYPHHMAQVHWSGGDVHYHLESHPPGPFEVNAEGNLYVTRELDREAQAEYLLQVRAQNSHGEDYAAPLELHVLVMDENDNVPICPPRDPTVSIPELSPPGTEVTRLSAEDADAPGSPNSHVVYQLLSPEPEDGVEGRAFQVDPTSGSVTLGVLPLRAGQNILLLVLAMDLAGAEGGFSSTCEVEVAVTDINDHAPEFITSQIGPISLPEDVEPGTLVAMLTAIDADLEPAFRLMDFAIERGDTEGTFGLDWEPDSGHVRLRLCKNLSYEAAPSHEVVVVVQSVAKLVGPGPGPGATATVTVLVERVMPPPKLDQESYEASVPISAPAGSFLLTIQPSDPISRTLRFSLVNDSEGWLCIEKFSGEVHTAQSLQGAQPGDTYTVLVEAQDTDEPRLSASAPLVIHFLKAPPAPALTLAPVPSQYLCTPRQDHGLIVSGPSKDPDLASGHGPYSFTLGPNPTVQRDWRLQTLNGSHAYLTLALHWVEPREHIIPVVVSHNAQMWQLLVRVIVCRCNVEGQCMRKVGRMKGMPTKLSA

T2: hCDH17-his (full length extracellular domain of human CDH17, Q23-M787, his tag at the C-terminal) (human, UniProt Q12864 23-787)
T2 construct: Limits of the construct (UniProt Q12864, Q23-M787, C-terminal his tag); also called human CDH17-his protein; human CDH17 protein
T2 sequence: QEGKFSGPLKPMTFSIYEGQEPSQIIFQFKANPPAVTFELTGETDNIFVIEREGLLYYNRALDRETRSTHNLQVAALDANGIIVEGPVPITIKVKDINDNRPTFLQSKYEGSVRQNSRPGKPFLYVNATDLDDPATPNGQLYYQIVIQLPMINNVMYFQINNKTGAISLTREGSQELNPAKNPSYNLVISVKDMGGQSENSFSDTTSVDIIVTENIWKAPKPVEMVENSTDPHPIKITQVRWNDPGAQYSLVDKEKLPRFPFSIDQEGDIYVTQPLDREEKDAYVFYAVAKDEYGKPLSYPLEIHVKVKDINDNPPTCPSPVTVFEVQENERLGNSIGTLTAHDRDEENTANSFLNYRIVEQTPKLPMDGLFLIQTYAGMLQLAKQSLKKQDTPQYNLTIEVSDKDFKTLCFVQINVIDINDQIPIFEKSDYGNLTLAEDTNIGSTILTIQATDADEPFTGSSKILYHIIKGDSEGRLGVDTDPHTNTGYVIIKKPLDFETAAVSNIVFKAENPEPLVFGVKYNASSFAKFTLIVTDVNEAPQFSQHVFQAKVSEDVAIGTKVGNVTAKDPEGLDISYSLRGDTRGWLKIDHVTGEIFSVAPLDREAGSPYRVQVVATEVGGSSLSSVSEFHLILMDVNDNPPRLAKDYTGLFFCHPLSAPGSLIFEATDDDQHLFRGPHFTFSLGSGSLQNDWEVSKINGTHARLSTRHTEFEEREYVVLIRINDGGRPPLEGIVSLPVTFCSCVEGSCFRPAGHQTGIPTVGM

T3: human CDH17, full length, expressed on cells (HEK293-hCDH17); AsPC-1, HCT-8, AGS, LoVo, KATO III, HT-29 tumor … (human, UniProt Q12864 23-832)
T3 construct: also called human CDH17 expressed on tumor cells
T3 sequence: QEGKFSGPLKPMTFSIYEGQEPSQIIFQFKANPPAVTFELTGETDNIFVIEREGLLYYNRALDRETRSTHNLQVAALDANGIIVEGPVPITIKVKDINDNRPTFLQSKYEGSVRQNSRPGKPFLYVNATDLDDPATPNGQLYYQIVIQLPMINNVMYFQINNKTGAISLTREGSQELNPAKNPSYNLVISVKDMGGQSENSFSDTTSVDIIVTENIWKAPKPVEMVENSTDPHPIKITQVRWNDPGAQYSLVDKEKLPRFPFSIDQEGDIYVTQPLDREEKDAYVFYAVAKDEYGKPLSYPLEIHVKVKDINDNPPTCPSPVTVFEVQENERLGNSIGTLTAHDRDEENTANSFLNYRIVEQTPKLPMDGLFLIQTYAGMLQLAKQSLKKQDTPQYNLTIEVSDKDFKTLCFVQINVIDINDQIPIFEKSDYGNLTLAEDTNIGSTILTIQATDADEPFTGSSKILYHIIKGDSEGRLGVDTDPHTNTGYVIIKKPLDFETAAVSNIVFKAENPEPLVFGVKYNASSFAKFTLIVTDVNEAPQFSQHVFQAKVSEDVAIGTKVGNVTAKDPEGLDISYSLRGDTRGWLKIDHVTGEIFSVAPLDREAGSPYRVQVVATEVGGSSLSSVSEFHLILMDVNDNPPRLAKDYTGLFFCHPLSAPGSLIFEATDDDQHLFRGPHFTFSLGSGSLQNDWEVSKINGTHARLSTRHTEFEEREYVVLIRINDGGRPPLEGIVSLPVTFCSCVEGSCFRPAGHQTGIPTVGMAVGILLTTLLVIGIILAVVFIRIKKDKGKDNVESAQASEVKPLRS

B1: 134C7B1 chimeric mAb (antibody, V domains shown)
VH: AVQLQQSGPELLKPGASVKISCKASGYTFTDYTMHWVKQSHGKSLEWIGGINPNYGGTSYNETFKDKATLTVDKSSNTAYMELRSLTSEDSAVYYCARIPYGSYPMDYWGQGTSVTVSS
VL: DIVMSQSPSSLTVSVGEKVTMSCKSSQSLLYSSNQKIYLAWYQQKPGQSPKLLISWASTRESGVPDRFTGSGSGTDFTLTISSVKAEDLADYYCQQYYRYRTFGGGTKLEIK
notes: Mouse variable regions fused to human IgG1 constant region
B2: 143H10E4 chimeric mAb (antibody, V domains shown)
VH: QVQLQQSDAELVKPGASVKISCKASGSTFTDHTIHWVKQRPEQGLEWIGYIYPVYGYTQNNEKFKGKATLTADKSSSTAYMQLNSLTSEDSAVYFCARSRDSNPYYFDYWGQGTTLTVSS
VL: EIVLTQSPALMAASPGEKVTITCTVSSSISSSNLHWYQQKSGTSPKPWIYGTSNLASGVPVRFSGSGSGTSYSLTISSMEAEDAATYYCQQWSSYPFTFGSGTKLKMK
notes: as for B1
B3: 155B11C6 chimeric mAb (antibody, V domains shown)
VH: QVQLQQSGAELARPGASVKMSCKASGYTFTSYTMHWVKQRPGQGLEWIGYIDPKSDYNYYNQKFKDKATLTADKSSSTAYMQLSGLTSEDSTVYYCARGFFKGYFDVWGAGTTVTVSS
VL: B2 VL with A9P, T24S, G42E, V61I, S93T, S101A, K106E, M107L
notes: as for B1
B4: 152A1D12 chimeric mAb (antibody, V domains shown)
VH: EVQLQQSGPELVKPGASVKISCKASGYTFTDYNMHWVKQSHGKSLEWIGYIYRNNGYNGYNQKFKNKATLTVDSSSSTAYMELRSLTSEDSAVYYCARNYWRGAMDYWGQGTSVTVSS
VL: QIVLTQSPAIMSASPGEKVTMTCSASSSISYMHWYQQKPGTSPKRWIYDTSKLASGVPARFSGSGSGTSYSLTISSMEAEDAGTYYCHQRSSYPWTFGGGTKLEIK
notes: as for B1
B5: 16C18 chimeric mAb (antibody, V domains shown)
VH: QVQLQQSGAELAKPGTSVKMSCKASGYNFTNYWMNWVKQRPGQGLEWIGTFNPSYGYTEYNQKFKDKAILTADKSSSTAYMQLNSLTSEDSAVYYCARRSSHFDYWGQGTTLTVSS
VL: DIVMSQSPSSLAVSAGEKVTMSCKSSQSLLNSRTRTNYLAWYQQKPGQSPKLLIYWASTRESGVPDRFTGSGSGTDFTLTISSVQAEDLAVYYCKQSYNLPTFGGGTKLEIK
notes: also called 16C8
B6: 120B10C5 chimeric mAb (antibody, V domains shown)
VH: QVQLQQSGAELAKPGASVKLSCRTSGYTFTNYWMHWVKQRPGQGLEWIGYINPSSGYTKYNQKFKDKATLTADKSSSTAYMQLSSLTYEDSAVHYCARSLNYYDSGYWYFDVWGTGTAVTVSS
VL: DIVLTQSPASLAVSLGQRATISCRASQSVSTSSYSYMHWYQQKPGQPPKLLIKYASNLESRVPARFSGSGSGTDFTLNIHPVEEEDSATYYCQHSWEIPWTFGGGTKLEIK
notes: as for B1
B7: 69E3H11-z12a19 (antibody, V domains shown)
VH: QVQLVQSGAEVKKPGASVKVSCKASGYTFTTYWMHWVKQAPGQRLEWIGEIDPSDSYANYNQKFKGKATLTVDKSASTAYMELSSLRSEDTAVYYCALYYGYGDWGQGTTVTVSS
VL: EIVLTQSPGTLSLSPGERATLSCSVSSSISKIHLHWYQQKPGQAPRLLIYRTSNLASGIPDRFSGSGSGTDFTLTISRLEPEDFAVYYCQQGSNLPLTFGQGTRLEIK
B8: 69E3H11-z12a20 (antibody, V domains shown)
VH: B7 VH
VL: B7 VL with K31R
B9: 69E3H11-z12a28 (antibody, V domains shown)
VH: B7 VH
VL: B7 VL with K31S, S53K
B10: 69E3H11-z12a42 (antibody, V domains shown)
VH: B7 VH
VL: B7 VL with S27A, K31R, S53R, L55R
B11: 69E3H11-z12a21 (antibody, V domains shown)
VH: B7 VH
VL: B7 VL with S27A, K31R
B12: 69E3H11-z12a26 (antibody, V domains shown)
VH: B7 VH
VL: B7 VL with K31S, S53R
B13: 69E3H11-z12a27 (antibody, V domains shown)
VH: B7 VH
VL: B7 VL with K31S, S53R, L55R

Changes are numbered by the printed parent chain.

The target in one experiment is T1, human CDH16 protein (hCDH16-his, …). The experiment in a line: ELISA, hCDH16-his coated at 1 ug/mL. (In an ELISA, binding on a coated surface is turned into a signal by an enzyme label.)
Consider B1, for which the binding result is reported as “no binding (tested: titrated from 100 nM)”.

In the case of B2, the binding result is “no binding (tested: titrated from 100 nM)”.

Consider B3, for which the binding result is “no binding (tested: titrated from 100 nM)”.

Consider B4, for which the binding result was “no binding (tested: titrated from 100 nM)”.

For the molecule B5, the binding result was “no binding (tested: titrated from 100 nM)”.

Turning to B6, the binding result is on record as “no binding (tested: titrated from 100 nM)”.

The target in a further experiment is T2, hCDH17-his (full length extracellular …). The experiment in a line: ELISA, hCDH17-his coated at 2 ug/mL.
With B1, the binding result is “binds”.

Regarding B2, the binding result was “binds”.

For the molecule B3, the binding result is “binds”.

In the case of B4, the binding result is reported as “binds”.

In the case of B5, the binding result is “binds”.

Consider B6, for which the binding result is recorded as “binds”.

For the next experiment, the target named is T3, human CDH17, full length, expressed on …. The experiment can be described thus: flow cytometry, HEK293-hCDH17 cells.
Turning to B1, the binding result was “binds”.

Turning to B2, the binding result is on record as “binds”.

For B3, the binding result was “binds”.

Regarding B4, the binding result is listed as “binds”.

B5: the binding result is listed as “binds”.

Regarding B6, the binding result was “binds”.

The target is the same in a further experiment. The experiment can be described thus: flow cytometry, LoVo, HCT-8 and AsPC1 cells. (In general: In flow cytometry, cells or beads pass a laser one at a time.)
Consider B7, for which the binding result is “binds”.

On to B8, for which the binding result is given as “binds”.

With B9, the binding result is given as “binds”.

With B10, the binding result is on record as “binds”.

For B11, the binding result is reported as “binds”.

As to B12, the binding result is recorded as “binds”.

As for B13, the binding result is “binds”.

Another experiment deals with T2, hCDH17-his (full length extracellular …). The experiment in a line: SPR (Biacore 8K), two doses, antibody captured on Protein A chip, hCDH17-his at 25 nM and 100 nM.
In the case of B7, the binding result is listed as “binds”.

Regarding B8, the binding result is given as “binds”.

As for B9, the binding result is “binds”.

Turning to B10, the binding result is on record as “binds”.

On to B11, for which the binding result was “binds”.

In the case of B12, the binding result was “binds”.

Take B13: the binding result is “binds”.

For the origin of these results see patent EP4806514A2 (Lepu Biopharma Co., Ltd., dated 2025).
